In assay [1] the target is T1, human TNFR2 extracellular domain fused to human IgG1 Fc (human, UniProt P20333 23-257).
T1 construct: also called TNFR2-huFc; huTNFR2; not shown: C-terminal human IgG1 Fc
T1 sequence: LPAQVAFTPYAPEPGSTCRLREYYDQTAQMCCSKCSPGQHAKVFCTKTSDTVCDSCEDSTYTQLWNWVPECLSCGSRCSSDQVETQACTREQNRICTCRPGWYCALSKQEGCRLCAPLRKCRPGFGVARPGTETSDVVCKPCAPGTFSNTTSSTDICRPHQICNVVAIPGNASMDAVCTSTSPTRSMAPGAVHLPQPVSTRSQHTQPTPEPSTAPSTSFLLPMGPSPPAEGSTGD
As to the kind of experiment: blocking ELISA: antibody pre-mixed with huTNFR2, binding of huTNFR2 to coated human TNFα read out. On the procedure: (§1) 96-well round bottom ELISA plates were coated overnight at 4° C. with 50 μL/well of 0.5 μg/mL human TNFα recombinant protein (R&D system, Cat #210-TA-100) in coating buffer. After removing the coating solution, blocking buffer was added into the plates followed by incubation at room temperature for 1 hour in order to block unspecific binding. During the blocking period, hybridoma antibodies samples were mixed with 0.5 μg/mL TNFR2-huFc at a 1:1 volume ratio and incubated at room temperature for another 1.5 hours. Then 50 μL/well of antigen-antibody mix solution was transferred into TNFα coated wells and incubated at room temperature for 1.5 hours. Plates were then washed 5 times with wash buffer. Then, 50 μL/well of goats anti-human IgG Fc-AP (Southern Biotech, cat #2014-04) at 1:2000 dilution in assay buffer was added, incubated at room temperature for 1 hour, washed 4 times with wash buffer and developed for 30 minutes with 50 μL/well of pNPP substrate. Plates were analyzed with a Synergy HT (Bio-TEK) at 405 nm. Parental hybridomas with the desired human and cynoTNFR2 binding as well as the ability to block human TNFR2 and human TNFα binding were prioritized for subcloning and further characterization. Subcloning was carried out with limited dilution and visual inspection was performed to ensure clonality. Hybridoma subclones were screened with the same binding and blocking assays and selected positive hits were cryopreserved.
(§2) TNFR2 blocking by purified recombinant chimeric antibodies: Human TNFR2 blocking ELISA was performed on purified recombinant chimeric antibodies following the same protocol as described above, except that 50 μL/well of serial dilution of purified antibodies (starting at 10 μg/mL, 1:3 dilution) in assay buffer was added into the reaction. The blocking IC₅₀ value represents the antibody concentration that inhibited 50% of huTNFR2 or cynoTNFR2 binding to coated human TNFα or cynomolgus monkey TNFα.
For orientation: ELISA stands for enzyme-linked immunosorbent assay.

The target in assay [2] is T2, human TNFR2 expressed on cells (Expi293 cells stably expressing huTNFR2) (human, UniProt P20333 23-461).
T2 construct: whole, on cells; Also used here as the target of the Treg assay (native TNFR2 on human primary Treg cells); also called huTNFR2 expressed cells; Expi293-TNFR2 cells
T2 sequence (looked up): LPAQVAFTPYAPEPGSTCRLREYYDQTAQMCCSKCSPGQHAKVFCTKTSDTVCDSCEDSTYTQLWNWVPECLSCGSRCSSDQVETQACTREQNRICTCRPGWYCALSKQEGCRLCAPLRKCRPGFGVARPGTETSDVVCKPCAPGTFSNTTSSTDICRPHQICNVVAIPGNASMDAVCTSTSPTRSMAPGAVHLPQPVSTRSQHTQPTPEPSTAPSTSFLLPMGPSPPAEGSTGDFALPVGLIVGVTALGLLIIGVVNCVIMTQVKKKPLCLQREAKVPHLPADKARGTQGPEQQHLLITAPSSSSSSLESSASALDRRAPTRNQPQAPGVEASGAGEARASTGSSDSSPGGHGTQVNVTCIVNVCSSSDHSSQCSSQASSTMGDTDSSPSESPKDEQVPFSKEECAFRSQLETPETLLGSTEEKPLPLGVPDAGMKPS
As to the kind of experiment: flow cytometry on Expi293 cells stably expressing huTNFR2. How it is done: The coding sequence of huTNFR2 (Uniprot, P20333) was cloned into a lentiviral vector and the virus was packaged according to the instruction of the virus packaging kit (Lenti-X™ Packaging Single Shots, Cat #631275, Takada). The Expi293 cells were transduced with the recombinant virus and selected by puromycin. The cell line stably expressing huTNFR2 was incubated with anti-TNFR2 antibodies in PBS with 0.5% BSA, 1 mM EDTA, and 0.1% sodium azide (FACS buffer) for 30 minutes at 4° C. The cells were washed, and then incubated with 10 nM phycoerythrin (PE) conjugated anti-Human Fe Ab (Biolegend, cat #409304) for 20 minutes at 4° C. Cells were washed and then […] by flow cytometry with Attune (ThermoFisher Scientific). Data were analyzed with FlowJo software. Antibody binding is represented as median fluorescence intensity (MFI).
As shown by the results in Table 9 and FIG. 4A, the anti-TNFR2 antibodies, 51B5, 102E4, 85G8.4, 29G3, 11C1, and 15H10 bind to Expi293-TNFR2 cells dose-dependently and potently.

The target of assay [3] is T3, cynomolgus monkey TNFR2 extracellular domain as used in the blocking ELISA (cynomolgus monkey, UniProt P20333 23-257 (human entry)).
T3 construct: also called cynoTNFR2
T3 chain: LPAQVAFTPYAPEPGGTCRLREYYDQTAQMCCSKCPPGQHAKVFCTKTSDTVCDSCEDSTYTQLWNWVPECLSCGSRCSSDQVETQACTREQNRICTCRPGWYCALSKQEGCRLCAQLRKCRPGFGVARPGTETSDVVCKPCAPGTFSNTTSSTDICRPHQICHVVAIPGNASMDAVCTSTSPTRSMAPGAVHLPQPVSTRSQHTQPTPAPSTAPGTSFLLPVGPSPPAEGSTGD
As to the kind of experiment: blocking ELISA: antibody pre-mixed with cynoTNFR2, binding of cynoTNFR2 to coated cynomolgus monkey TNFα read out. How it is done:
as §1, §2

The source of these data is patent US20250011448A1 (STAIDSON BIOPHARMA, published 2025).

Usually IC50 stands for the midpoint of a concentration-inhibition curve. Usually EC50 stands for the concentration that produces a half-maximal response.

B1: 15H10 chimeric anti-TNFR2 antibody (antibody, V domains shown)
VH: DVQLQESGPGLVTPSQSLSLTCSVTGYSITSGYYWNWIRQFPGNKLEWMGYITYDGNNNYNPSLKSRFSITRDTSKNQFFLKLNSVTSEDTATYYCARGDYGDSAMDYWGQGTSVTVSS
VL: EIVLTQSPAITAASLGQKVTITCSASSGVNYMHWYQQKSGTSPKPWIYEISKLASGVPARFSGSGSGTSYSLTISSMEAEDAAIYYCQQWNYPLITFGAGTKVELK
notes: Chimeric: mouse variable domains with human constant regions, made as recombinant IgG1
For the molecule B1, the figures for the IC50 in assay [1] and in assay [3] were 0.584 nM and 1.01 nM, respectively. In assay [2], this molecule had an EC50 of 2.52 nM.

B2: 11C1 chimeric anti-TNFR2 antibody (antibody, V domains shown)
VH: DVQLRESGPGLVTPSQSLSLTCSVTGYSITSGYYWNWIRQIPGNKLEWMGYITYDGNNNYDPSLKNRISITRDTSKNQFFLTLNSVTSEDTATYYCARGDYGDSAMDYWGQGTSVTVSS
VL: EIVLTQSPAITAASLGQKVTITCSASSSVSYMHWYQQKSGTSPKPWIYEISKLASGVPARFSGSGSGTSYSLIISSMEAEDAAIYYCQQWNYPLITFGAGTKLELK
notes: as for B1
With B2, the IC50 in assay [1] is 0.723 nM; in assay [3], 1.09 nM. The same molecule came in with an EC50 in assay [2] of 2.04 nM.

B3: 85G8.4 chimeric anti-TNFR2 antibody (antibody, V domains shown)
VH: EVQLQQSGPELVKPGASVKISCKTSGYTFTDFNMDWVKQSHGKSLEWIGYINPNNGDAAYNQKFKSKATLTVDKSSNTAYMELHSLTSDDSAVYYCARWGWAFAYWGQGTLVTVSA
VL: DIVMTQSHKIMSTSVGDRVSITCKASQDVKTAVAWYQQKPGQSPKLLIYATSYRYTGVPDRFTGSGSGTDFTFTISTVQAEDLAVYYCQQHYSIPYTFGGGTKLEIK
notes: as for B1
As to B3, the IC50 in assay [1] was 0.583 nM; in assay [3] it was 1.02 nM. In assay [2], this molecule yielded an EC50 of 1.47 nM.

B4: 29G3 chimeric anti-TNFR2 antibody (antibody, V domains shown)
VH: EVMLVESGGASVKPGGSLKLSCAASGFTFSNFAMSWVRQTPEKRLEWVATIRSGDNYSYYSDNVKGRFTISRDNARNTLYLQMSSLRSKDTSIYYCARNWDKVFDYWGQGTTLTVSS
VL: DIVLTQSPASLAVSLGQRATISCRASESVDSYGYSFMHWYQQKPGQPPKLLIYRASNLKSGIPARFSGSGSRTDFTLTINPVEADDVATYYCQQSNEDHTFGGGTKLEIK
notes: as for B1
For B4, the IC50 came to 0.505 nM in assay [1] and 0.927 nM in assay [3]. This molecule also gave an EC50 in assay [2] of 0.654 nM.
